From the supplement of paper PMC9112550, “Optimization of the antimicrobial peptide Bac7 by deep mutational scanning” (BMC Biology, 2022)

test system: Escherichia coli TOP10; assay: shrunken log2 fold change of peptide-encoding DNA abundance (4.5 h post-induction vs induction); higher = less antimicrobial activity (less host growth inhibition); conditions: time post-induction: 4.5 h; library: site-saturation at positions 5, 18, 19, 20
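Further: peptides expressed intracellularly from a pBAD plasmid library in pooled LB shake-flask culture, induced with 0.3% L-arabinose, DNA abundance read by NGS, three biological replicates, DESeq2 with apeglm shrinkage.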

Row | Sequence | shrunken log2 fold change
1 | RRIRWRPPRLPRPRPRPYTTPRP | -0.537
2 | RRIRSRPPRLPRPRPRPDCFPRP | 0.103
3 | RRIRFRPPRLPRPRPRPGCGPRP | 0.748
4 | RRIRHRPPRLPRPRPRPENSPRP | -0.304
5 | RRIRYRPPRLPRPRPRPLQCPRP | -0.344
6 | RRIRPRPPRLPRPRPRPTHEPRP | 0.466
7 | RRIRGRPPRLPRPRPRPRGKPRP | 0.341
8 | RRIRKRPPRLPRPRPRPCEMPRP | 0.0303
9 | RRIRARPPRLPRPRPRPWMPPRP | -0.216
10 | RRIRWRPPRLPRPRPRPDNWPRP | 0.104
11 | RRIRARPPRLPRPRPRPIQTPRP | -0.0208
12 | RRIRTRPPRLPRPRPRPEDPPRP | -0.00217
13 | RRIRHRPPRLPRPRPRPLACPRP | 0.0188
14 | RRIRVRPPRLPRPRPRPWFMPRP | -0.537
15 | RRIRIRPPRLPRPRPRPDRAPRP | -0.169
16 | RRIRNRPPRLPRPRPRPEYSPRP | -0.272
17 | RRIRERPPRLPRPRPRPMTIPRP | -0.155
18 | RRIRNRPPRLPRPRPRPAFSPRP | -0.183
19 | RRIRDRPPRLPRPRPRPMSGPRP | -0.0837
20 | RRIRMRPPRLPRPRPRPYGRPRP | 0.0596
21 | RRIRVRPPRLPRPRPRPFFHPRP | 0.145
22 | RRIRARPPRLPRPRPRPTQRPRP | 0.915
23 | RRIRGRPPRLPRPRPRPYSKPRP | -0.2
24 | RRIRIRPPRLPRPRPRPYEEPRP | -0.828
25 | RRIRLRPPRLPRPRPRPVFQPRP | 0.042

Row | Sequence | shrunken log2 fold change
26 | RRIRFRPPRLPRPRPRPGIFPRP | -0.218
27 | RRIRQRPPRLPRPRPRPPDSPRP | 0.377
28 | RRIRDRPPRLPRPRPRPNIHPRP | -0.214
29 | RRIRRRPPRLPRPRPRPAPFPRP | 0.863
30 | RRIRCRPPRLPRPRPRPECDPRP | 0.346
31 | RRIRQRPPRLPRPRPRPSGHPRP | -0.0673
32 | RRIRSRPPRLPRPRPRPYMSPRP | -0.355
33 | RRIRCRPPRLPRPRPRPGSVPRP | 0.102
34 | RRIRERPPRLPRPRPRPHLEPRP | -0.0328
35 | RRIRVRPPRLPRPRPRPSVSPRP | -0.488
36 | RRIRARPPRLPRPRPRPRRHPRP | 1.65
37 | RRIRNRPPRLPRPRPRPLRPPRP | 0.998
38 | RRIRGRPPRLPRPRPRPITAPRP | 0.236
39 | RRIRFRPPRLPRPRPRPEMFPRP | 0.099
40 | RRIRQRPPRLPRPRPRPVPAPRP | 0.475
41 | RRIRARPPRLPRPRPRPNYEPRP | -0.22
42 | RRIRQRPPRLPRPRPRPIGYPRP | -0.0242
43 | RRIRQRPPRLPRPRPRPFANPRP | 0.0297
44 | RRIRCRPPRLPRPRPRPDAVPRP | 0.0365
45 | RRIRYRPPRLPRPRPRPHWCPRP | -0.0867
46 | RRIRVRPPRLPRPRPRPGHKPRP | -0.17
47 | RRIRFRPPRLPRPRPRPNARPRP | 0.241
48 | RRIRGRPPRLPRPRPRPTPLPRP | 0.747
49 | RRIRYRPPRLPRPRPRPNEIPRP | -0.807
50 | RRIRARPPRLPRPRPRPDPRPRP | 0.254

Row | Sequence | shrunken log2 fold change
51 | RRIRFRPPRLPRPRPRPFGAPRP | 0.168
52 | RRIRWRPPRLPRPRPRPAHWPRP | 0.0695
53 | RRIRVRPPRLPRPRPRPYVNPRP | 0.0651
54 | RRIRWRPPRLPRPRPRPYGCPRP | -0.189
55 | RRIRYRPPRLPRPRPRPYTVPRP | -0.00544
56 | RRIRKRPPRLPRPRPRPCIGPRP | 0.0382
57 | RRIRGRPPRLPRPRPRPCAEPRP | 1.91
58 | RRIRWRPPRLPRPRPRPNNHPRP | -0.588
59 | RRIRFRPPRLPRPRPRPIMFPRP | -0.0164
60 | RRIRERPPRLPRPRPRPWPKPRP | -0.102
61 | RRIRTRPPRLPRPRPRPYYSPRP | -0.274
62 | RRIRMRPPRLPRPRPRPHWVPRP | -0.0142
63 | RRIRQRPPRLPRPRPRPKMQPRP | -0.134
64 | RRIRQRPPRLPRPRPRPKHEPRP | 0.164
65 | RRIRRRPPRLPRPRPRPDYNPRP | -0.0973
66 | RRIRNRPPRLPRPRPRPHVWPRP | 0.0415
67 | RRIRTRPPRLPRPRPRPPWGPRP | 0.0724
68 | RRIRARPPRLPRPRPRPSPGPRP | 0.284
69 | RRIRCRPPRLPRPRPRPWWWPRP | -0.1
70 | RRIRWRPPRLPRPRPRPVVAPRP | 0.28
71 | RRIRVRPPRLPRPRPRPPGWPRP | 0.718
72 | RRIRTRPPRLPRPRPRPKDSPRP | 0.0052
73 | RRIRNRPPRLPRPRPRPPSRPRP | 0.228
74 | RRIRKRPPRLPRPRPRPGGLPRP | 0.0184
75 | RRIRDRPPRLPRPRPRPNPIPRP | -0.132

Row | Sequence | shrunken log2 fold change
76 | RRIRKRPPRLPRPRPRPPAKPRP | 0.408
77 | RRIRVRPPRLPRPRPRPTDVPRP | 0.0418
78 | RRIRQRPPRLPRPRPRPSELPRP | -0.159
79 | RRIRPRPPRLPRPRPRPEPNPRP | 0.293
80 | RRIRDRPPRLPRPRPRPSSNPRP | -0.148
81 | RRIRWRPPRLPRPRPRPMTFPRP | -0.108
82 | RRIRQRPPRLPRPRPRPNMIPRP | -0.209
83 | RRIRNRPPRLPRPRPRPSPEPRP | -0.123
84 | RRIRDRPPRLPRPRPRPEFRPRP | 0.283
85 | RRIRVRPPRLPRPRPRPMYYPRP | -0.706
86 | RRIRARPPRLPRPRPRPDCPPRP | 0.337
87 | RRIRRRPPRLPRPRPRPASDPRP | -0.0475
88 | RRIRVRPPRLPRPRPRPQWLPRP | 0.188
89 | RRIRSRPPRLPRPRPRPRLAPRP | 0.45
90 | RRIRARPPRLPRPRPRPNVTPRP | 0.17
91 | RRIRLRPPRLPRPRPRPQECPRP | -0.00874
92 | RRIRKRPPRLPRPRPRPQERPRP | -0.0146
93 | RRIRRRPPRLPRPRPRPCRPPRP | 0.0965
94 | RRIRNRPPRLPRPRPRPDLVPRP | -0.15
95 | RRIRPRPPRLPRPRPRPHSQPRP | -0.134
96 | RRIRRRPPRLPRPRPRPKAYPRP | 0.224
97 | RRIRARPPRLPRPRPRPWNTPRP | -0.427
98 | RRIRPRPPRLPRPRPRPGPNPRP | 0.51
99 | RRIRGRPPRLPRPRPRPSCYPRP | -0.0977
100 | RRIRERPPRLPRPRPRPKFVPRP | -0.287

Row | Sequence | shrunken log2 fold change
101 | RRIRYRPPRLPRPRPRPSNVPRP | -1.01
102 | RRIRARPPRLPRPRPRPFECPRP | -0.00737
103 | RRIRMRPPRLPRPRPRPCANPRP | -0.0263
104 | RRIRMRPPRLPRPRPRPKFNPRP | -0.111
105 | RRIRGRPPRLPRPRPRPLCFPRP | 0.705
106 | RRIRARPPRLPRPRPRPLESPRP | 0.486
107 | RRIRMRPPRLPRPRPRPWTCPRP | -0.0398
108 | RRIRRRPPRLPRPRPRPKWKPRP | -0.0205
109 | RRIRLRPPRLPRPRPRPKHPPRP | -0.09
110 | RRIRIRPPRLPRPRPRPIRCPRP | 0.0793
111 | RRIRTRPPRLPRPRPRPYSNPRP | -0.941
112 | RRIRRRPPRLPRPRPRPQILPRP | 0.0332
113 | RRIRMRPPRLPRPRPRPTYCPRP | -0.271
114 | RRIRVRPPRLPRPRPRPMEVPRP | -0.997
115 | RRIRNRPPRLPRPRPRPADVPRP | -0.289
116 | RRIRHRPPRLPRPRPRPCQHPRP | -0.214
117 | RRIRVRPPRLPRPRPRPFMTPRP | 0.127
118 | RRIRQRPPRLPRPRPRPTDTPRP | -0.339
119 | RRIRSRPPRLPRPRPRPTVLPRP | 0.0356
120 | RRIRSRPPRLPRPRPRPQEAPRP | -0.0452
121 | RRIRDRPPRLPRPRPRPVRDPRP | 0.203
122 | RRIRKRPPRLPRPRPRPHYGPRP | -0.0816
123 | RRIRVRPPRLPRPRPRPCMLPRP | -0.606
124 | RRIRTRPPRLPRPRPRPASMPRP | -0.212
125 | RRIRFRPPRLPRPRPRPDWRPRP | 0.0737

Row | Sequence | shrunken log2 fold change
126 | RRIRVRPPRLPRPRPRPCIGPRP | -0.8
127 | RRIRHRPPRLPRPRPRPLFMPRP | -0.492
128 | RRIRARPPRLPRPRPRPYEIPRP | -0.059
129 | RRIRARPPRLPRPRPRPSGEPRP | 0.65
130 | RRIRWRPPRLPRPRPRPPCPPRP | 0.138
131 | RRIRFRPPRLPRPRPRPRSCPRP | 0.155
132 | RRIRVRPPRLPRPRPRPRNWPRP | 0.4
133 | RRIRCRPPRLPRPRPRPMMSPRP | -0.0652
134 | RRIRTRPPRLPRPRPRPADMPRP | -0.431
135 | RRIRQRPPRLPRPRPRPLKVPRP | -0.102
136 | RRIRFRPPRLPRPRPRPISRPRP | 0.0107
137 | RRIRPRPPRLPRPRPRPCGYPRP | -0.136
138 | RRIRHRPPRLPRPRPRPLQHPRP | 0.0675
139 | RRIRCRPPRLPRPRPRPGSDPRP | -0.0369
140 | RRIRWRPPRLPRPRPRPYPMPRP | -0.128
141 | RRIRYRPPRLPRPRPRPIADPRP | 0.0616
142 | RRIRCRPPRLPRPRPRPSDEPRP | -0.126
143 | RRIRNRPPRLPRPRPRPSCHPRP | 1.83
144 | RRIRFRPPRLPRPRPRPAEEPRP | 0.105
145 | RRIRLRPPRLPRPRPRPRDFPRP | -0.206
146 | RRIRNRPPRLPRPRPRPRVLPRP | 0.0234
147 | RRIRARPPRLPRPRPRPYMKPRP | -0.366
148 | RRIRVRPPRLPRPRPRPGHPPRP | 0.146
149 | RRIRGRPPRLPRPRPRPFMSPRP | -0.192
150 | RRIRGRPPRLPRPRPRPAYDPRP | 0.326
